T1: rhesus CD96 transiently expressed on CHO cells (rhesus, UniProt P40200 22-585 (human entry))
T1 construct: also called rhesus CD96, short isoform
T1 chain: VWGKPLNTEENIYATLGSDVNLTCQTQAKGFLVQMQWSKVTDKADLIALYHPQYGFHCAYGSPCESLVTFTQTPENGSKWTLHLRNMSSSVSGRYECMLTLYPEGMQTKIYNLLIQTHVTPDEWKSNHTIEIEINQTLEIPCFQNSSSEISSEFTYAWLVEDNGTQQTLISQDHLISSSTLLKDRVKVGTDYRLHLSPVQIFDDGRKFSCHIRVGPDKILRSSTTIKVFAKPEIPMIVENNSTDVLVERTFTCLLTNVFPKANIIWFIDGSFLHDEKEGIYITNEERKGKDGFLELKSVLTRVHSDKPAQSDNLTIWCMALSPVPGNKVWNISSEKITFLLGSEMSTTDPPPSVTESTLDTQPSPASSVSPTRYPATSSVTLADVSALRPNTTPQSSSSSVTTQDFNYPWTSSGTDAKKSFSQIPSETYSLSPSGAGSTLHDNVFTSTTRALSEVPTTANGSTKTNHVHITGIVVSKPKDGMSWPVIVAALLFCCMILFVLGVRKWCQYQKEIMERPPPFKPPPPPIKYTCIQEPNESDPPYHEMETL

T2: human CD96 short isoform v2 expressed on CHO cells (human, UniProt P40200 22-585)
T2 construct: also called hCD96v2; CD96v2; not shown: C-terminal HA-tag
T2 sequence: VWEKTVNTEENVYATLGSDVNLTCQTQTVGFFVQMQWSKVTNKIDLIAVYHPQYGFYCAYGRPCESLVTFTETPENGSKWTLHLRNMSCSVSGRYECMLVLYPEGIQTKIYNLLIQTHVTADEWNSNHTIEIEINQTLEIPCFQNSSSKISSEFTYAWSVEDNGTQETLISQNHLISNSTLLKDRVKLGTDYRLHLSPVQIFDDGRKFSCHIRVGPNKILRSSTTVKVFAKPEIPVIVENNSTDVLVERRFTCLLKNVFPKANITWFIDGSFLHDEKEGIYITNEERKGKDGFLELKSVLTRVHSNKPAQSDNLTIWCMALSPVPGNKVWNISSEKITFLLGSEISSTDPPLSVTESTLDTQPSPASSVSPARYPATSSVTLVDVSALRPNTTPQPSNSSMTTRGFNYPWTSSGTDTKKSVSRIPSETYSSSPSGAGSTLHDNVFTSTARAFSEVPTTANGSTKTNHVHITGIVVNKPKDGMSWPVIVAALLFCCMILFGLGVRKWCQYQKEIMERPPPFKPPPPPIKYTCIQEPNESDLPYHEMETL

T3: mouse CD96 expressed on CHO cells (mouse, UniProt Q3U0X8 22-602)
T3 construct: whole, on cells; also called mCD96
T3 sequence (looked up): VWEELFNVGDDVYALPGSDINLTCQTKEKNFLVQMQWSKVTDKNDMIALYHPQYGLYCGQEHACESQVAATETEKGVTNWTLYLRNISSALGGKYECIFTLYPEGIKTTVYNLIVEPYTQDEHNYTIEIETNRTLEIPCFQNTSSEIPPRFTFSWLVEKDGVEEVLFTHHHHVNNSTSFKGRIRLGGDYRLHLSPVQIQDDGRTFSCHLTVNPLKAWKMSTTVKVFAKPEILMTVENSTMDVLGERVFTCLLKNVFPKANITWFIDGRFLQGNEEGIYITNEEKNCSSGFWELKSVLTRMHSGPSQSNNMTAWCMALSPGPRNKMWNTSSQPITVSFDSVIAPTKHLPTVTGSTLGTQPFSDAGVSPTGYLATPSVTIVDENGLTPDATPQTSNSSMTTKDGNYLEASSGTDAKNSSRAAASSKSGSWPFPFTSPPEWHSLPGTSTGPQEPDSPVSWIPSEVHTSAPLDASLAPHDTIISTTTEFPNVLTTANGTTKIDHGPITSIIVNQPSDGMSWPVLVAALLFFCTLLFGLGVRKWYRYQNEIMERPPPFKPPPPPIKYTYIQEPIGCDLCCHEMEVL


Key:
[1] = molecular target: T1, rhesus CD96 transiently expressed on …; test: flow cytometry on CHO cells transiently expressing rhesus CD96; antibody at 1 (thin line) and 10 µg/ml (thick dashed line), filled grey = isotype control
Description: FIG. 7: Binding profiles of anti-CD96 antibodies on CHO cells transfected with rhesus CD96. Anti-CD96 antibodies or the corresponding isotype control mAbs were tested for their capacity to recognize rhesus CD96 transiently expressed on CHO cells by flow cytometry. Each histogram represents the overlay of the fluorescence intensity obtained for each antibody tested at 1 (black line) and 10 μg/ml (thick dashed black line) and compared to the fluorescence obtained with an isotypic control (filled grey histogram).
(§1) The capacity of the identified mouse anti-human CD96 antibodies to recognize the CD96 protein from other species was further analyzed by flow cytometry by using CHO cells expressing the mouse or the rhesus CD96. The expression of the species-specific CD96 on CHO cell surface was confirmed by using staining with appropriate anti-CD96 antibodies and flow cytometry on non-fixed cells. The rat anti-mCD96 antibody clone #630612 (R&D Systems) and the candidate BL006-9-1 (positive by ELISA on rhesus CD96) were used to confirm the expression of rhesus CD96, while the clone 6A6 (rat IgG2a, e-Bioscience) was used to verify the expression of mouse CD96.
(§2) Mouse anti-CD96 antibodies and isotype control antibodies were incubated at 10 or 1 μg/mL with CHO cells expressing different CD96 species at +4° C. for 30 minutes.

[2] = molecular target: T2, human CD96 short isoform v2 expressed …; test: FCM on hCD96v2-CHO cells
Description: FIG. 6: Binding profiles of anti-hCD96 antibodies on human CD96-transfected CHO cells (hCD96v2, short isoform). CHO cells expressing hCD96v2 were incubated with serial dilution of the indicated mIgG1 or mIgG2a anti-CD96 or isotype control antibodies. […] The results are expressed as the difference of mean fluorescence intensity (delta MFI) between cells stained with antibodies and cells without antibodies. Dose response curves were obtained from GraphPad prism software using a non-linear regression fit with a variable slope model (4 parameters). To simplify the reading, results from the various anti-hCD96 candidates are shown on 4 different panels.
The capacity of the identified mouse anti-CD96 antibodies to recognize the cell membrane expressed human CD96 was further analyzed by flow cytometry (FCM) by using CHO cells stably transfected with the CD96 short isoform v2 (CD96v2; Genbank accession number NM_005816, flanked in C-terminus with HA-tag) (SEQ ID NO: 268).
Mouse anti-CD96 antibodies and isotype control antibodies were incubated at various concentrations from 10 μg/mL to 4.6 ng/mL with CHO cells expressing human CD96 at +4° C. for 30 minutes. […] The differences between the mean fluorescence intensity (MFI) obtained for each of the antibody concentration and the intensity obtained in absence of primary antibody (delta-MFI), were calculated and plotted against the concentrations of antibodies.

[3] = molecular target: T2, human CD96 short isoform v2 expressed …; test: FCM, inhibition of hCD155-Fc binding to hCD96v2-CHO cells
Description: All candidates except BL006-2-19 that bound very weakly on hCD96v2 by FCM were tested for their capacity to inhibit the binding of human CD155 to hCD96v2 stably expressed on CHO cells. Human CD96-transfected CHO cells (3×10⁵ cells/well of 96-well plate) were incubated at +4° C. for 30 minutes with serial dilutions of anti-CD96 antibodies or isotype control antibody (in mIgG2a or mIgG2aD265A format) in the presence of 4 μg/mL of biotinylated hCD155-Fc (produced and biotinylated at BliNK).
% inhibition=(1−(MFI_wAb&CD155−MFI_CHO)/(MFI_wCD155−MFI_CHO))×100, where MFI_wAb&CD155 is the Mean Intensity Fluorescence (MFI) obtained with the hCD96-CHO cells incubated with the tested antibody and hCD155-hFc; MFI_CHO is the MFI obtained in the absence of hCD155 and mAbs; and MFI_wCD155 is the fluorescence with hCD155 but without pre-incubation with antibody (0% CD155 binding inhibition). The % of inhibition was plotted against antibody concentration and the IC50 values were calculated by using a nonlinear regression analysis model of the GraphPad Prism software.

[4] = molecular target: T3, mouse CD96 expressed on CHO cells; test: FCM on CHO cells expressing mouse CD96
Text: as §1, §2

Binder	binding result [1]	EC50 [2]	Maximum binding (delta MFI) [2]	IC50 [3]	Maximal Inhibition Capacity (%) [3]	binding result [4]
BL006-4-31G1-31K3 (antibody, V domains shown, Recombinant mIgG2a/kappa (also made as mIgG2a-D265A); also called candidate NO 10) VH: QVQLQQSGPELVKPGASVKISCKTSGFTFTDYYINWVKQRPGQGLEWIGWIFPGSGSSFYSEIFKGQATLTVDKSSSTAYMLLSSLTSEDSAVYFCARRNYYGYGAYAMDYWGQGTSVTVSS VL: DIQMNQSPSSLSASLGDTITITCRASQSINFWLSWYQQKPGNIPKLLIYKASNLHTGVPSRFSGSGSGTDFTLTISSLQPEDIATYYCLQGQSYPLTFGGGTKLEIK	binds	4.82 nM	723000 delta MFI	16.8 nM	100%	no binding (tested: 1 and 10 µg/mL)
BL006-19-352G9-352K8 (antibody, V domains shown, Recombinant mIgG2a/kappa (also made as mIgG2a-D265A); also called candidate NO 17) VH: QVQLQQPGAELVKPGASVKLSCKASGYTFTSYWMHWVKQRPGQGLEWIGMIHPNGDITDYNEKFKSKATLAVDESSSTAFMQLNSLTSEDSAFYYCARASYYGSLYWGQGTTLTVSS VL: DIVMTQSQKFMSTSVGDRVSVTCKASQNVGIAVAWYQKKPGQSPKTLIYSASTRYTGVPDRFTGSGSGTDFTLTINDVQSEDLADYFCQQYGSSPLTFGAGTKLELK	binds					no binding (tested: 1 and 10 µg/mL)
BL006-9-15G1-15K5 (antibody, V domains shown, Recombinant mIgG2a/kappa (also made as mIgG2a-D265A); also called candidate NO 12) VH: QAYLQQSGAELVRPGASVKMSCKASGYTFTSYNMHWVKQTPRQGLEWIGAVIPGNGDSFYNQKFKGKATLTVDKSSSTAYMQLSSLTSEDSAVYFCGRSSSGCIAYWGQGTLVTVSA VL: DIVLTQSPASLAVSLGQRATISCRVSGSVDYDGDSYMNWYQQKPGQPPKLLIYAASNLESGIPARFSGSGSETDFTLNIHPVEEEDAATYYCLQSNEAPWTFGGGTKVEIK		14.3 nM	42000 delta MFI		< 5%	
BL006-4-52G6-52K7 (antibody, V domains shown, Recombinant mIgG2a/kappa (also made as mIgG2a-D265A); also called BL006-4-52G6-52K7 #4; candidate NO 2) VH: QVQLQQPGAELVKPGASVKLSCKASGYSFTSYWMHWVKQRPGQGLEWIGQIDPSDSYTNYNQKFKGKATLTVDKSSSTAYMQLSSLTSEDSAVYYCASGNYGPYLGNYFDYWGQGTTLTVPS VL: DIVMSQSPSSLVVSVGEKVTMSCKSSQSLLHSTNQKNYLAWYQQKPGQSPKLLIYWASTRESGVPDRFTGSGSGTDFTLTISSVKAEDLVVYYCQQYYNYPYTFGGGTKLEIK	binds	13.4 nM	493000 delta MFI		< 5%	no binding (tested: 1 and 10 µg/mL)
BL006-19-134G5-134K4 (antibody, V domains shown, Recombinant mIgG2a/kappa (also made as mIgG2a-D265A); also called BL006-19-134G5-134K4 #2; candidate NO 7) VH: QVQLQQPGAELVKPGASVKLSCKASDYTFTTYWMHWVKQRPGQGLEWIGMIHPNSDTTLYNEKFRSQATLTVDKSSSTAYIQLSRLTSEDSAVYYCVVTGTNFDYWGQGTTLAVSS VL: QVVLTQSPAIMSASPGEKVTMTCSATSSVSYMYWYQQKPGSSPKPWIYRTSNLASGVPVRFSGSGSGTSYSLTISSMEAEDAATYYCQQWSSNPLTFGGGTKLELK	no binding (tested: 10 µg/ml)					no binding (tested: 1 and 10 µg/mL)

Other lines, results leading:

binding result [1]	EC50 [2]	Maximum binding (delta MFI) [2]	IC50 [3]	Maximal Inhibition Capacity (%) [3]	binding result [4]	Binder
no binding (tested: 10 µg/ml)					no binding (tested: 1 and 10 µg/mL)	BL006-19-370G9-370K16 (antibody, V domains shown, Recombinant mIgG2a/kappa (also made as mIgG2a-D265A); also called candidate NO 19) VH: QVQLQQSGAELGRPGTSVKMSCKAAGYTFTNYWIGWVKQRPGHGLEWIGDIYPGGGYTNYNEKFKGKATLTADTSSSTAYIQLSSLTSEDSAIYYCARSGYYDGSPLAMDYWGQGTSVTVS VL: QIVLTQSPTIMSASPGEKVTMTCSASSSVSYMHWYQQKSGTSPKRWIYDTSKLASGVPARFSGSGSGTSYSLTISSMEAEDAATYYCQQWSSNPPTFGSGTKLEIK
no binding (tested: 10 µg/ml)					no binding (tested: 1 and 10 µg/mL)	BL006-4-20G5-20K5 (antibody, V domains shown, Recombinant mIgG2a/kappa (also made as mIgG2a-D265A); also called BL006-4-20G5-20K5 #1; candidate NO 1) VH: EVQLAESGGDLVTPGGSLKLSCAASGFTFSSYGMSWVRQTPDKRLEWVATITHGGSYIYYPDSVKGRFTLSRDNAKNTLYLQMSSLKSEDTAMYYCIRHADYARFAYWGQGTLVTVSA VL: DIQMTQTTSSLSASLGDRVTISCRPSQDISNYLNWYQQKPDGTVKLLIYYTSRLHSGVPSRFSGSGSGTDYSLTISNLEQEDIATYFCQQGNTLPWTFGGGTKLEIK
no binding (tested: 10 µg/ml)					no binding (tested: 1 and 10 µg/mL)	BL006-19-363G1-363K1 (antibody, V domains shown, Recombinant mIgG2a/kappa (also made as mIgG2a-D265A); also called candidate NO 18) VH: QVQLQQPGAELVKPGASVKLSCKASGYTFTTYWIHWVKQRPGQGLEWIGMILPNSGTTIYNEKFRSQATLTVDKSSSAAYMQLSRLTSEDSAVYYCAVTGTNFDYWGQGTTLTVSS VL: QIVLTQSPAIMSASPGEKVTMTCSASSSVSYMYWYQQKPGSSPKPWIYRTSNLASGVPVRFSGSGFGTSYSLTISNMEAEDAATYYCQQWSSNPLTFGTGTKLELK

Source: patent US20230192845A1 (BLINK BIOMEDICAL, published 2023)
